From patent US20220306695A1, “COMPSTATIN ANALOGUES AND THEIR MEDICAL USES” (priority 2019, published 2022)
Starred links: 1 amine or outer side, 2 acyl side, 3 side chain; linkers in the order of their positions; H or OH if unused. Positions of bridges follow the written chain, without caps; N, C: chain ends. Non-standard residues stand in square brackets, D forms with d. Groups on a side chain read outwards from the residue. *: point of attachment. Trp(1-Me) = Cn1cc(C[C@H](N)C(=O)O)c2ccccc21; C18 diacid = O=C(O)CCCCCCCCCCCCCCCCC(=O)*; C16 diacid = O=C(O)CCCCCCCCCCCCCCC(=O)*; γGlu = O=C(O)[C@H](CCC(=O)[*:2])N[*:1]; hCys = N[C@@H](CCS)C(=O)O; AEEA = NCCOCCOCC(=O)O; Sar = CNCC(=O)O

Columns and labels:
Human C3 [1] = molecular target: T1, Human C3 (human, UniProt P01024 23-1663); assay: SPR, C3 immobilised
T1 construct: In SPR the bought human C3 was immobilised on CM5 chips by amine coupling; In the haemolysis assay the C3 is that of diluted human serum; also called complement C3
Method: Surface plasmon resonance (SPR) was used to characterize peptides with respect to their binding affinity (Kd) for C3. Human C3 (Complement tech cat #A1 13c) was immobilised on individual flow cells of CM5 sensor chips (GE Healthcare) using standard amine coupling to a density of approximately 3000 resonance units (RU) in a buffer consisting of 10 mM phosphate pH 7.4, 150 mM NaCl, 0.05% Tween20.
For interaction experiments a multi-cycle experiment approach was used and performed using either a Biacore™ T200 or Biacore™ X100 instrument (GE Healthcare) at 25° C. Peptides were injected in increasing concentration series (5-8 different concentrations) for 60-120 s at a flow rate of 30 μL/min in a buffer consisting of 10 mM Tris buffer at pH 7.4, with 150 mM NaCl and 0.05% Tween20. This was followed by a dissociation period for up to 10 min. The C3 surface was regenerated between runs by a 45 s injection of 3 M MgCl₂.
Sensorgrams were double-referenced (reference surface, blanks) prior to analysis of the kinetic profiles by globally fitting data to a 1:1 Langmuir binding model to obtain association and dissociation rates for calculation of the equilibrium dissociation constant Kd. Each peptide was tested at in at least 2 independent experiments.

Human C3 [2] = molecular target: T1, Human C3; assay: cell-based or functional assay

T1 sequence (P01024 23-1663 limits assumed): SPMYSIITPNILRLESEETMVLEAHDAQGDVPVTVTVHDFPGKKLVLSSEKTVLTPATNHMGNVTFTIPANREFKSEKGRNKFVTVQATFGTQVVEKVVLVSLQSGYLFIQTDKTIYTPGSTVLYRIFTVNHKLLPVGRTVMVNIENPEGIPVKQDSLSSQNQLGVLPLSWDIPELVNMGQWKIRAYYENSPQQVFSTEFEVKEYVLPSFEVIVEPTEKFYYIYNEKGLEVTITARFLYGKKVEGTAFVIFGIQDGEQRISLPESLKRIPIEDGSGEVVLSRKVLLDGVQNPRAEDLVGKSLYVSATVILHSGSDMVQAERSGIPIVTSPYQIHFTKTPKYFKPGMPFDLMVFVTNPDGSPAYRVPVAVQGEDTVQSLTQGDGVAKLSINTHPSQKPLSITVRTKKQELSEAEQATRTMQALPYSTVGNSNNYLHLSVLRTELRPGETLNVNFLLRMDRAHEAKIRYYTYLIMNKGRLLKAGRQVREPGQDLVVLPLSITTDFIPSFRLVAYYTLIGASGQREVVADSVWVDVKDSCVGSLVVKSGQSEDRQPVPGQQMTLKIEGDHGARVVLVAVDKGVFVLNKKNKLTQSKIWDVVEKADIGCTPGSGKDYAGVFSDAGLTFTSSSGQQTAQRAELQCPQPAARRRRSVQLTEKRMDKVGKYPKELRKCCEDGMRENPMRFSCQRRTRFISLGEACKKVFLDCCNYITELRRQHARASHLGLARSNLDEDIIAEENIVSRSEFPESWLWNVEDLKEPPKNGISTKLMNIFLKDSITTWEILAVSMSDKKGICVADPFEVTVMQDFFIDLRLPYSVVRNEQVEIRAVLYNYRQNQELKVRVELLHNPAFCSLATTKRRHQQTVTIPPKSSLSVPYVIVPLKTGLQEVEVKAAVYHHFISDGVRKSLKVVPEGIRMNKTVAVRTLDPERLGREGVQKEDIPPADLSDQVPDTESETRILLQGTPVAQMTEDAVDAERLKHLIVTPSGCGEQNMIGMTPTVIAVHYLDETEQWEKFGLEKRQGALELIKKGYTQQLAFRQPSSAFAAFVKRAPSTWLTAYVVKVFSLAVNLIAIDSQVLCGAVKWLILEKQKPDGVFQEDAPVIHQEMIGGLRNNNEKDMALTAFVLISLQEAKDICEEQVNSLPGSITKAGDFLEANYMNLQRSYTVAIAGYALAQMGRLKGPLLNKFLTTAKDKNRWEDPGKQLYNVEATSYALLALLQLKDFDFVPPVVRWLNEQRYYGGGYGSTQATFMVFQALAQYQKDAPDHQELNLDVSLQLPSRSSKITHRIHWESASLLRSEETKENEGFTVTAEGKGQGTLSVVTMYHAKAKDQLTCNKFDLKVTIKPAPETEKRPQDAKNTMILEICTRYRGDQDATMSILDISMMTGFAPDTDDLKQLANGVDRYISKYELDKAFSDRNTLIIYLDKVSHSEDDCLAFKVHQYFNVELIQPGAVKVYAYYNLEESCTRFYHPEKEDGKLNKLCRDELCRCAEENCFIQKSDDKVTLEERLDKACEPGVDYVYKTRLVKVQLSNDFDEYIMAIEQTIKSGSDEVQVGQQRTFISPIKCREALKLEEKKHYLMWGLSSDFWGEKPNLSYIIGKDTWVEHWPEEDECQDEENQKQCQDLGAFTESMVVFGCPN

B1: Compound 67 (peptide)
peptide: Ac-SEFCI[Trp(1-Me)]QDWGEHRCTGAES-NH2
modifications: disulfide 4-14
SMILES: CC[C@H](C)[C@@H]1NC(=O)[C@@H](NC(=O)[C@H](Cc2ccccc2)NC(=O)[C@H](CCC(=O)O)NC(=O)[C@H](CO)NC(C)=O)CSSC[C@@H](C(=O)N[C@H](C(=O)NCC(=O)N[C@@H](C)C(=O)N[C@@H](CCC(=O)O)C(=O)N[C@@H](CO)C(N)=O)[C@@H](C)O)NC(=O)[C@H](CCCNC(=N)N)NC(=O)[C@H](Cc2c[nH]cn2)NC(=O)[C@H](CCC(=O)O)NC(=O)CNC(=O)[C@H](Cc2c[nH]c3ccccc23)NC(=O)[C@H](CC(=O)O)NC(=O)[C@H](CCC(N)=O)NC(=O)[C@H](Cc2cn(C)c3ccccc23)NC1=O
How did the Kd (Human C3 [1]) turn out when B1 was run?
The Kd was 0.68 nM.

And the “IC50[nM], inhibition of hemolysis” value (Human C3 [2])?
The value was less than 100 nM.

B2: Compound 147 (peptide)
peptide: SEFAIWQDWGEHRCGEXXK
modifications: not fully specified; N-acetyl; C-terminal amide; delta-cystathionine (Ctt2) thioether bridge A4-hCys14 (hCys written C); W6 is 1-Me-Trp; G10 is Sar; G15 is Sar; X17 and X18 are Peg3; K19 side chain bears [17-carboxy-heptadecanoyl][γGlu]G[γGlu]
How did the Kd (Human C3 [1]) turn out when B2 was run?
Its Kd is 0.71 nM.

What about the “IC50[nM], inhibition of hemolysis” value (Human C3 [2]) of the same binder?
Its value is less than 100 nM.

What does the source list for Ac-SEF[hCys]I[Trp(1-Me)]QDW[Sar]EHRA[Sar]E[AEEA][AEEA]K([γGlu-Gly-γGlu-C18 diacid])-NH2 (thioether 4-14) [Compound 164]?
Kd (Human C3 [1]): 6.4 nM; IC50[nM], inhibition of hemolysis (Human C3 [2]): < 100 nM

What does the source list for Ac-SEFCI[Trp(1-Me)]QDWGEHRC[Sar]EGE[AEEA]ESK([γGlu-γGlu-C18 diacid])-NH2 (disulfide 4-14) [Compound 140]?
Kd (Human C3 [1]): 7.6 nM; IC50[nM], inhibition of hemolysis (Human C3 [2]): < 100 nM

B3: Compound 165 (peptide)
peptide: Ac-SEF[hCys]I[Trp(1-Me)]QDWGEHRATEGE[AEEA]ESK([γGlu-C18 diacid])-NH2
modifications: thioether 4-14
SMILES: CC[C@H](C)[C@@H]1NC(=O)[C@@H](NC(=O)[C@H](Cc2ccccc2)NC(=O)[C@H](CCC(=O)O)NC(=O)[C@H](CO)NC(C)=O)CCSC[C@@H](C(=O)N[C@H](C(=O)N[C@@H](CCC(=O)O)C(=O)NCC(=O)N[C@@H](CCC(=O)O)C(=O)NCCOCCOCC(=O)N[C@@H](CCC(=O)O)C(=O)N[C@@H](CO)C(=O)N[C@@H](CCCCNC(=O)CC[C@H](NC(=O)CCCCCCCCCCCCCCCCC(=O)O)C(=O)O)C(N)=O)[C@@H](C)O)NC(=O)[C@H](CCCNC(=N)N)NC(=O)[C@H](Cc2c[nH]cn2)NC(=O)[C@H](CCC(=O)O)NC(=O)CNC(=O)[C@H](Cc2c[nH]c3ccccc23)NC(=O)[C@H](CC(=O)O)NC(=O)[C@H](CCC(N)=O)NC(=O)[C@H](Cc2cn(C)c3ccccc23)NC1=O
With B3 as the binder, how does the Kd (Human C3 [1]) read?
The Kd was 20.7 nM.

What about the “IC50[nM], inhibition of hemolysis” value (Human C3 [2]) of the same binder?
Its value is less than 250 nM.

With Ac-SEFCI[Trp(1-Me)]QDWGEHRCTEGE[AEEA]ESK([γGlu-C18 diacid])-NH2 (disulfide 4-14) [Compound 142] as the binder, how does the Kd (Human C3 [1]) read?
The Kd was 4.8 nM.

What about the “IC50[nM], inhibition of hemolysis” value (Human C3 [2]) of the same binder?
The value was less than 100 nM.

B4: Compound 150 (peptide)
peptide: SEFAIWQDWGEHRCGEGEXESK
modifications: not fully specified; N-acetyl; C-terminal amide; delta-cystathionine (Ctt2) thioether bridge A4-hCys14 (hCys written C); W6 is 1-Me-Trp; G10 is Sar; G15 is Sar; X19 is Peg3; K22 side chain bears [17-carboxy-heptadecanoyl][γGlu]G[γGlu]
B4 was tested. Which Kd (Human C3 [1]) did it give?
Its Kd is 0.56 nM.

And the “IC50[nM], inhibition of hemolysis” value (Human C3 [2])?
The value was less than 100 nM.

B5: Compound 139 (peptide)
peptide: Ac-SEFCI[Trp(1-Me)]QDWGEHRC[Sar]EGESESK([γGlu-Gly-γGlu-C18 diacid])-NH2
modifications: disulfide 4-14
SMILES: CC[C@H](C)[C@@H]1NC(=O)[C@@H](NC(=O)[C@H](Cc2ccccc2)NC(=O)[C@H](CCC(=O)O)NC(=O)[C@H](CO)NC(C)=O)CSSC[C@@H](C(=O)N(C)CC(=O)N[C@@H](CCC(=O)O)C(=O)NCC(=O)N[C@@H](CCC(=O)O)C(=O)N[C@@H](CO)C(=O)N[C@@H](CCC(=O)O)C(=O)N[C@@H](CO)C(=O)N[C@@H](CCCCNC(=O)CC[C@H](NC(=O)CNC(=O)CC[C@H](NC(=O)CCCCCCCCCCCCCCCCC(=O)O)C(=O)O)C(=O)O)C(N)=O)NC(=O)[C@H](CCCNC(=N)N)NC(=O)[C@H](Cc2c[nH]cn2)NC(=O)[C@H](CCC(=O)O)NC(=O)CNC(=O)[C@H](Cc2c[nH]c3ccccc23)NC(=O)[C@H](CC(=O)O)NC(=O)[C@H](CCC(N)=O)NC(=O)[C@H](Cc2cn(C)c3ccccc23)NC1=O
Which Kd (Human C3 [1]) does the source give for B5 here?
Its Kd is 7.4 nM.

And the “IC50[nM], inhibition of hemolysis” value (Human C3 [2])?
The value was less than 100 nM.

B6: Compound 130 (peptide)
peptide: Ac-SEFCI[Trp(1-Me)]QDWGEHRCTEGEGGGK([γGlu-Gly-γGlu-C18 diacid])-NH2
modifications: disulfide 4-14
SMILES: CC[C@H](C)[C@@H]1NC(=O)[C@@H](NC(=O)[C@H](Cc2ccccc2)NC(=O)[C@H](CCC(=O)O)NC(=O)[C@H](CO)NC(C)=O)CSSC[C@@H](C(=O)N[C@H](C(=O)N[C@@H](CCC(=O)O)C(=O)NCC(=O)N[C@@H](CCC(=O)O)C(=O)NCC(=O)NCC(=O)NCC(=O)N[C@@H](CCCCNC(=O)CC[C@H](NC(=O)CNC(=O)CC[C@H](NC(=O)CCCCCCCCCCCCCCCCC(=O)O)C(=O)O)C(=O)O)C(N)=O)[C@@H](C)O)NC(=O)[C@H](CCCNC(=N)N)NC(=O)[C@H](Cc2c[nH]cn2)NC(=O)[C@H](CCC(=O)O)NC(=O)CNC(=O)[C@H](Cc2c[nH]c3ccccc23)NC(=O)[C@H](CC(=O)O)NC(=O)[C@H](CCC(N)=O)NC(=O)[C@H](Cc2cn(C)c3ccccc23)NC1=O
For B6, which Kd (Human C3 [1]) is on record?
Its Kd is 4.4 nM.

And the “IC50[nM], inhibition of hemolysis” value (Human C3 [2])?
The value was less than 100 nM.

B7: Compound 157 (peptide)
peptide: Ac-SEFAI[Trp(1-Me)]QDWGEHR[hCys]TEGEGGGK([γGlu-Gly-γGlu-C18 diacid])-NH2
modifications: thioether 4-14
SMILES: CC[C@H](C)[C@@H]1NC(=O)[C@@H](NC(=O)[C@H](Cc2ccccc2)NC(=O)[C@H](CCC(=O)O)NC(=O)[C@H](CO)NC(C)=O)CSCC[C@@H](C(=O)N[C@H](C(=O)N[C@@H](CCC(=O)O)C(=O)NCC(=O)N[C@@H](CCC(=O)O)C(=O)NCC(=O)NCC(=O)NCC(=O)N[C@@H](CCCCNC(=O)CC[C@H](NC(=O)CNC(=O)CC[C@H](NC(=O)CCCCCCCCCCCCCCCCC(=O)O)C(=O)O)C(=O)O)C(N)=O)[C@@H](C)O)NC(=O)[C@H](CCCNC(=N)N)NC(=O)[C@H](Cc2c[nH]cn2)NC(=O)[C@H](CCC(=O)O)NC(=O)CNC(=O)[C@H](Cc2c[nH]c3ccccc23)NC(=O)[C@H](CC(=O)O)NC(=O)[C@H](CCC(N)=O)NC(=O)[C@H](Cc2cn(C)c3ccccc23)NC1=O
How did the Kd (Human C3 [1]) turn out when B7 was run?
The Kd was 3.5 nM.

And the “IC50[nM], inhibition of hemolysis” value (Human C3 [2])?
The value was less than 100 nM.

B8: Compound 141 (peptide)
peptide: Ac-SEFCI[Trp(1-Me)]QDWGEHRC[Sar]EGESESK([γGlu-C18 diacid])-NH2
modifications: disulfide 4-14
SMILES: CC[C@H](C)[C@@H]1NC(=O)[C@@H](NC(=O)[C@H](Cc2ccccc2)NC(=O)[C@H](CCC(=O)O)NC(=O)[C@H](CO)NC(C)=O)CSSC[C@@H](C(=O)N(C)CC(=O)N[C@@H](CCC(=O)O)C(=O)NCC(=O)N[C@@H](CCC(=O)O)C(=O)N[C@@H](CO)C(=O)N[C@@H](CCC(=O)O)C(=O)N[C@@H](CO)C(=O)N[C@@H](CCCCNC(=O)CC[C@H](NC(=O)CCCCCCCCCCCCCCCCC(=O)O)C(=O)O)C(N)=O)NC(=O)[C@H](CCCNC(=N)N)NC(=O)[C@H](Cc2c[nH]cn2)NC(=O)[C@H](CCC(=O)O)NC(=O)CNC(=O)[C@H](Cc2c[nH]c3ccccc23)NC(=O)[C@H](CC(=O)O)NC(=O)[C@H](CCC(N)=O)NC(=O)[C@H](Cc2cn(C)c3ccccc23)NC1=O
What does the source list for B8?
Kd (Human C3 [1]): 6.6 nM; IC50[nM], inhibition of hemolysis (Human C3 [2]): < 100 nM

B9: Compound 122 (peptide)
peptide: Ac-SEYCI[Trp(1-Me)]QEWGEHRC[Sar]EGAK([AEEA-γGlu-AEEA-Gly-γGlu-C18 diacid])-NH2
modifications: disulfide 4-14
SMILES: CC[C@H](C)[C@@H]1NC(=O)[C@@H](NC(=O)[C@H](Cc2ccc(O)cc2)NC(=O)[C@H](CCC(=O)O)NC(=O)[C@H](CO)NC(C)=O)CSSC[C@@H](C(=O)N(C)CC(=O)N[C@@H](CCC(=O)O)C(=O)NCC(=O)N[C@@H](C)C(=O)N[C@@H](CCCCNC(=O)COCCOCCNC(=O)CC[C@H](NC(=O)COCCOCCNC(=O)CNC(=O)CC[C@H](NC(=O)CCCCCCCCCCCCCCCCC(=O)O)C(=O)O)C(=O)O)C(N)=O)NC(=O)[C@H](CCCNC(=N)N)NC(=O)[C@H](Cc2c[nH]cn2)NC(=O)[C@H](CCC(=O)O)NC(=O)CNC(=O)[C@H](Cc2c[nH]c3ccccc23)NC(=O)[C@H](CCC(=O)O)NC(=O)[C@H](CCC(N)=O)NC(=O)[C@H](Cc2cn(C)c3ccccc23)NC1=O
With B9 as the binder, how does the Kd (Human C3 [1]) read?
Its Kd is 63 nM.

What about the “IC50[nM], inhibition of hemolysis” value (Human C3 [2]) of the same binder?
Its value is less than 500 nM.

Ac-SEFAI[Trp(1-Me)]QDWGEHR[hCys][Sar]EGAK([AEEA-γGlu-AEEA-Gly-γGlu-C18 diacid])-NH2 (thioether 4-14; not fully specified) [Compound 154] was tested. Which Kd (Human C3 [1]) did it give?
Its Kd is 2.4 nM.

What about the “IC50[nM], inhibition of hemolysis” value (Human C3 [2]) of the same binder?
The value was less than 100 nM.

Ac-SEFCI[Trp(1-Me)]QDWGEHRC[Sar]EGE[AEEA][AEEA]K([γGlu-Gly-γGlu-C16 diacid])-NH2 (disulfide 4-14) [Compound 127] was tested. Which Kd (Human C3 [1]) did it give?
Its Kd is 8.5 nM.

And the “IC50[nM], inhibition of hemolysis” value (Human C3 [2])?
Its value is less than 100 nM.
